Data on twelve molecules can be found in patent publication US20210380703A1 (RIGEL PHARMACEUTICALS, published 2021).

The labels stand for the following.
B1: 370_G04 (antibody, V domains shown)
VH: EVQLLESGGGLVQPGGSLRLSCAASGFTFSSYGMHWVRQAPGKGLEWVSGINYNGGYTGYADSVKGRFTISRDNSKNTLYLQMNSLRAEDTAVYYCARAANWHDTALDYWGQGTLVTVSS
VL: DIQMTQSPSSLSASVGDRVTITCRASQSILSYVNWYQQKPGKAPKLLIYAATSRASGVPSRFSGSGSGTDFTLTISSLQPEDFATYYCQQSYSTPLTFGGGTKVEIK
notes: Group I
B2: 371_D05 (antibody, V domains shown)
VH: B1 VH with S30D, S31D, G59S, N101T, A106H
VL: B1 VL with S31T, V33L, T52S, R54L, A55Q, S93D, T94S
notes: Group II
B3: 371_D12 (antibody, V domains shown)
VH: B1 VH with S30D, H35N, T58K, G59S
VL: B1 VL with V33L, S93E, T94L
notes: Group I
B4: 371_A04 (antibody, V domains shown)
VH: B1 VH with S30D, H35N, G50S, G55S
VL: B1 VL with S31T, V33L, A51V, S93D
notes: Group I
B5: 370_H05 (antibody, V domains shown)
VH: B1 VH with G50N, G59S, N101T, A106H
VL: B1 VL with V33L, T52S, R54L, A55Q, Y92D, T94L
notes: Group II
B6: 371_C02 (antibody, V domains shown)
VH: B1 VH with S30D, S49A, G55S, N101T, A106H
VL: B1 VL with S31T, T52S, R54L, A55Q, S93D
notes: Group II
B7: 371_B11 (antibody, V domains shown)
VH: B1 VH with G33S, S49A, G50S, G55S, G59S, N101T, A106H
VL: B1 VL with S31T, V33L, S93E, T94L
notes: Group II
B8: 371_A09 (antibody, V domains shown)
VH: B1 VH with H35N, T58K, G59S
VL: B1 VL with L30V, S31T, L47V, S93D, T94S
notes: Group I
B9: 371_B02 (antibody, V domains shown)
VH: B1 VH with S30D, H35N, G50N, G59S, N101T, A106H
VL: B1 VL with S31T, L47V, R54L, S93N, T94N
notes: Group II
B10: 371_F07 (antibody, V domains shown)
VH: B1 VH with S49A, G59S, N101T, A106H
VL: B1 VL with S31T, V33L, R54L, Y92D, T94N
notes: Group II
B11: 370_H08 (antibody, V domains shown)
VH: B1 VH with S49A, G50S, G59S, A106H
VL: B1 VL with A55H, T94L
notes: Group I
B12: 371_A05 (antibody, V domains shown)
VH: B1 VH with G50N, T58K, G59S, N101T, A106H
VL: B1 VL with S31T, V33L, Y92D, S93N, T94L
notes: Group II

Substitutions are numbered along the chain they refer to.
Note: test concentration or dose not given here.

Chain of mouse ACVR2A (P27038 20-135 limits assumed): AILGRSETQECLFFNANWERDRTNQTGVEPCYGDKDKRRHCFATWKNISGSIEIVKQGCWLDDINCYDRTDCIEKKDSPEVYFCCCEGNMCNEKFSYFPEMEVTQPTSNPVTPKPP

In one test the target is T1, biotinylated goat anti-human kappa light chain.
T1 construct: positive control of the ELISA
The experiment in a line: ELISA, positive control. Summed up: (§1)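 Binding signal was read by ELISA after ACVR2A-specific monoclonal antibodies were tested against human ACVR2A and mouse ACVR2A, with human Fc as the negative control.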
On to B1, for which the optical density came out at 3.51 OD.

Regarding B2, the optical density amounted to 3.44 OD.

In the case of B3, the optical density came out at 3.44 OD.

As to B4, the optical density turned out to be 3.53 OD.

As to B5, the optical density turned out to be 3.61 OD.

B6: the optical density came to 3.66 OD.

With B7, the optical density was 3.59 OD.

In turn, B8 returned an optical density of 3.62 OD.

B9 came in with an optical density of 3.59 OD.

B10 showed an optical density of 3.34 OD.

In the case of B11, the optical density was 3.65 OD.

In turn, B12 came in with an optical density of 3.6 OD.

A further test has as its target mouse ACVR2A (mouse, UniProt P27038 20-135, limits assumed). The experiment in a line: ELISA. Summed up: as §1
For orientation: ELISA stands for enzyme-linked immunosorbent assay.
B1: the optical density stood at 2.12 OD.

B2 displayed an optical density of 3.11 OD.

As for B3, the optical density was 2 OD.

Turning to B4, the optical density is 1.17 OD.

Consider B5, for which the optical density stood at 3.14 OD.

As for B6, the optical density was found to be 2.88 OD.

In the case of B7, the optical density was found to be 3.26 OD.

For B8, the optical density is 2 OD.

With B9, the optical density worked out at 2.28 OD.

Molecule B10 came in with an optical density of 2.89 OD.

B11 returned an optical density of 3.24 OD.

Regarding B12, the optical density worked out at 3.24 OD.

The target of the next test is T2, human ACVR2A (human, UniProt P27037 20-135, limits assumed).
T2 construct: also called activin receptor, type II A
T2 sequence (P27037 20-135 limits assumed): as the sequence (P27038 20-135 limits assumed) above, with R20K, I73V counted along it
The test can be described thus: ELISA. Summed up:
as §1
Molecule B1 showed an optical density of 1.82 OD.

For the molecule B2, the optical density amounted to 2.72 OD.

On to B3, for which the optical density came out at 1.89 OD.

Consider B4, for which the optical density worked out at 1.01 OD.

As for B5, the optical density is 2.94 OD.

In turn, B6 returned an optical density of 2.92 OD.

Turning to B7, the optical density came out at 3.18 OD.

Molecule B8 had an optical density of 1.85 OD.

In turn, B9 registered an optical density of 2 OD.

The molecule B10 showed an optical density of 2.78 OD.

Consider B11, for which the optical density turned out to be 2.94 OD.

With B12, the optical density stood at 3.05 OD.
